Results as given in US20150330993A1.

Biological target: purified human dimeric IgA (dIgA) (human)
Experiment: ELISA, dIgA held on anti-IgA coated plates, detected with R/HpIgR, anti-secretory component and anti-mouse HRP

lowest dIgA concentration tested, still detected: 31 ng/mL
Substance: chimeric rabbit/human polymeric Ig receptor R/HpIgR (rabbit domain 1, human domains 2-5) (from UniProt P01833 1-638)
